Reference: article PMC3931707, “Distinct Structural Features of the Peroxide Response Regulator from Group A Streptococcus Drive DNA Binding”

Experiments:
[1] = biological target: peroxide response regulator (PerR) from Group A streptococcus, recombinant 6xHis-tagged, wild type (Streptococcus pyogenes (Group A streptococcus) serotype M1 strain A20); experiment: SEC; Superdex 75 size exclusion chromatography of purified PerR against molecular weight markers; apparent molecular weight about 42 kDa for the wild type
PerR WT = biological target: T1, PerR WT (Streptococcus pyogenes (GAS) serotype …, UniProt Q9A1M6 1-155); experiment: EMSA; EMSA: 20 mM Tris pH 8.0, 50 mM KCl, 5% glycerol, 50 ug/ml BSA, 15 min at 25 C; 6% native PAGE in Tris-borate, ethidium bromide; conditions: protein: recombinant; tags: C-terminal 6xHis (pET-21b NdeI/XhoI); chain copies: 2
T1 sequence: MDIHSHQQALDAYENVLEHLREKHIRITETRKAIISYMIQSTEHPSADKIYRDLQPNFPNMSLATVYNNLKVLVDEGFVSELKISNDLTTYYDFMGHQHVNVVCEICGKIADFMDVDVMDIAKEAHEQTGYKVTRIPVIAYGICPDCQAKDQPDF

peroxide response regulator (PerR) from Group A streptococcus, recombinant 6xHis-tagged, wild type (natural protein)
stoichiometry N [1]: 2

B1: dpr segment (-185 to -135) (dsDNA)
DNA 1: ACACTTAATTAGAATCATTATCGTTTTATATCTATATTCTACAATGATTAA
DNA 2: TTAATCATTGTAGAATATAGATATAAAACGATAATGATTCTAATTAAGTGT
binding result (PerR WT): binds
